Laboratory results as given in PMC8184817, “Transmission of light signals from the light-oxygen-voltage core via the hydrophobic region of the β-sheet surface in aureochrome-1” (Scientific Reports, 2021).

How the values were obtained:
Details in all cases: protein: recombinant; chain copies: 2; label: Alexa Fluor647 (EMSA); biotin (QCM); blunt; self-complementary palindrome, 2 copies
PZ F219V = biological target: T1, PZ F219V (Vaucheria frigida? (VfAUREO1), UniProt A8QW55 113-348, C162S;C182S;F219V); test: EMSA; QCM; dark state; low EC50; EMSA: 5% polyacrylamide gel, 25 C, dark or blue light 5 W/m2; QCM: 27 MHz, QCM buffer, 25 C; buffer, salt and pH not given (earlier papers cited); EC50 values (nM, per monomer) only in figures
T1 sequence: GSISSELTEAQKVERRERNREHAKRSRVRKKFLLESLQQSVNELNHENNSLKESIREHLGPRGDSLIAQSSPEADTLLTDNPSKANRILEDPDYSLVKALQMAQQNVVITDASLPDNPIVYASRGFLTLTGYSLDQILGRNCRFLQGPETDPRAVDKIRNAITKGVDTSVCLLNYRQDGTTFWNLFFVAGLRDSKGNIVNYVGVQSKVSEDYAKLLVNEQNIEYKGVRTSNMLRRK

PZ L201A = biological target: T2, PZ L201A (Vaucheria frigida? (VfAUREO1), UniProt A8QW55 113-348, C162S;C182S;L201A); test: EMSA; QCM; dark state; EC50 lower than wtPZ; EMSA: 5% polyacrylamide gel, 25 C, dark or blue light 5 W/m2; QCM: 27 MHz, QCM buffer, 25 C; buffer, salt and pH not given (earlier papers cited); EC50 values (nM, per monomer) only in figures
T2 sequence: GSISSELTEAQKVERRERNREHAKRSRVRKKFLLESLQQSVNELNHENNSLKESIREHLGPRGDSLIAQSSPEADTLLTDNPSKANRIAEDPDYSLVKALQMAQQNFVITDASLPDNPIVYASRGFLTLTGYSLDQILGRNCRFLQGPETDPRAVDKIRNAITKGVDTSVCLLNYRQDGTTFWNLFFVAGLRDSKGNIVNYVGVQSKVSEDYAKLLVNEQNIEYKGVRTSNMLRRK

[1] = biological target: T3, PZ L201A/L208A/L212A (triple) (Vaucheria frigida? (VfAUREO1), UniProt A8QW55 113-348, C162S;C182S;L201A;L208A;L212A); test: as above
T3 sequence: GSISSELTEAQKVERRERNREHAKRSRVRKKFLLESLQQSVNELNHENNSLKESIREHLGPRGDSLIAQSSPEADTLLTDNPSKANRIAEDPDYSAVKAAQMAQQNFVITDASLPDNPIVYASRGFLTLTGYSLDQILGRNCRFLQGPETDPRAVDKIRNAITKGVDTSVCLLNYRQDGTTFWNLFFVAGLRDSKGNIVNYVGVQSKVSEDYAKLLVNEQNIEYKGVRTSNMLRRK

PZ L208A = biological target: T4, PZ L208A (Vaucheria frigida? (VfAUREO1), UniProt A8QW55 113-348, C162S;C182S;L208A); test: as above
T4 sequence: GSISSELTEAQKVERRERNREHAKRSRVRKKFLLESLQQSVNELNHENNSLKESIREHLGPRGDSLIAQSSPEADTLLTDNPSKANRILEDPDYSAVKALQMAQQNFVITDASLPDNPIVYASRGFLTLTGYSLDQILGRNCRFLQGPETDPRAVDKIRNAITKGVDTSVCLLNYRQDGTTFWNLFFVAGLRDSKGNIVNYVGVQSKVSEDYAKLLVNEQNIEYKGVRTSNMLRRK

Measured: binding result

B1: dsApo (dsDNA)
DNA 1: GCTGTCTGACGTCAGACAGC
DNA 2: GCTGTCTGACGTCAGACAGC
binds: all assays above
